Test results as given in article PMC1933539.

Tests used:
[1] = biological target: SycO (Yersinia enterocolitica type three secretion chaperone SycO) (Yersinia enterocolitica WA-314); experiment: cross-linking; 1.3 mM DSP, 3 μg/μl recombinant SycO in PBS, 30 min at 22°C; Coomassie-stained SDS-PAGE
[2] = biological target: SycO (Yersinia enterocolitica type three secretion chaperone SycO) (Yersinia enterocolitica WA-314); experiment: SEC; analytical gel filtration, SMART system, Superdex 75 PC 3.2/30 in PBS; 50 μg SycO mixed with 50 μg carbonic anhydrase (29 kDa marker); fractions analysed by SDS-PAGE; column calibrated with marker proteins

Substance “SycO (Yersinia enterocolitica type three secretion chaperone SycO) (natural protein)” has a stoichiometry N [1] of 2 and a stoichiometry N [2] of 2.
